In US7491701 (BOYS TOWN NATIONAL RESEARCH HOSPITAL, dated 2009):
Where no end group is shown, it is not given here.

B1: OTOF CTERM E48 (peptide)
peptide: CYSLPGYMVKKLLGA
modifications: not fully specified (residue 1); also: N-terminal Cys coupled to Sulfolink gel matrix (immobilised)
notes: also called E48 peptide; exon 48 (E48) otoferlin C-terminal peptide
B2: OTOF CTERM E47 (peptide)
peptide: CYSLPGYLAKKILGA
modifications: not fully specified (residue 1); also: N-terminal Cys coupled to Sulfolink gel matrix (immobilised)
notes: also called E47 peptide; exon 47 (E47) otoferlin C-terminal peptide

Experiments:
[1] = target: T1, HS9A_MOUSE, heat shock protein HSP-90 alpha (HSP 86) (mouse, UniProt P07901 2-733); assay: peptide affinity matrix pull-down from mouse brain extract, Coomassie-stained SDS-PAGE (FIG. 1A)
T1 construct: Native protein captured from mouse brain extract; identified by mass spectrometry and western blot; also called p97; 97-kilodalton protein
Procedure: FIG. 1A Coomassie stained gel, FIG. 1B Western analysis of an identical gel with antibody to beta-COP. MW=molecular weight markers, Total=13,200 rpm supernatant loaded onto column matrix. E47=sample eluted from OTOF CTERM E47 column matrix. BC1=672 BC1, E48=OTOF CTERM E48, CC1=670 CC1. Brain extracts were made in a Potter-Elvehjem Teflon glass homogenizer using 1 ml/100 mg tissue of TNGD (50 mM TRIS 7.5, 75 mM NaCl, 10 mM EGTA, 2 mM EDTA) plus protease inhibitor 10 ul/ml (Sigma P8340). Protein extracts were absorbed to four Sulfolink-peptide affinity matrices and washed four times with TNGD. The column matrix was transferred to PCR tubes and made 1× with SDS buffer (Pierce Cat. No. 39001) and heated at 95° C. for 5 minutes. Samples were separated on a 4-20% polyacrylamide gel. E47 peptide corresponds to otoferlin exon 47 C-terminal. E48 peptide corresponds to otoferlin exon 48 C-terminal. BC1 and CC1 peptides are specific controls for E47 and E48 respectively where a di-serine replaces di-lysine. Antibody to beta-COP (Ocogene cat # PC175) was used at a dilution of 1:1500.

[2] = target: T2, recombinant human Hsp90α (Stressgen SPP-776, Lot No. B201401) (human, UniProt P07900 1-732); assay: peptide affinity column, elution with 600 mM NaCl, silver-stained SDS-PAGE (no eluted protein was detected from the E47 column)
T2 construct: Bought recombinant protein; also called purified Hsp90α; purified human Hsp90α
Procedure: The columns was preabsorbed with 100 μl of 10% BSA for 30 minutes at 4° C. and mixed by rotation. The columns were then washed five times with 0.4 ml of TNGD. Four hundred (400) ng of recombinant human Hsp90α (Stressgen SPP-776, Lot No. B201401) in 100 μl of TNGD was added to each column for 30 minutes at 4° C. and mixed by rotation. The unabsorbed protein was removed by centrifugation. The columns were washed five times with 0.4 ml of TNGD, then eluted with 100 μl TNGD+600 mM NaCl. Samples were analyzed on a 4-20% SDS-PAGE gel followed by silver staining using a BIORAD Silver Stain Plus kit (No. 161-0449) as show in FIG. 5. […] The amount of protein added and eluted was determined by scanning the silver stained gel using a Alpha Imager 2200 gel imaging system. Approximately 10% of the protein corresponding to Hsp90 molecular weight was eluted with 600 mM NaCl+TGND from the E48 column while no eluted protein was detected with the same elution conditions from the E47 column.

Binder | binding result [1] | binding result [2]
B1 | binds | 
B2 | no binding | no binding
